Results: article PMC5408610, “Identification and characterization of a 20β-HSDH from the anaerobic gut bacterium Butyricicoccus desmolans ATCC 43058” (Journal of Lipid Research, 2017)

B1: 20β-HSDH (r20β-HSDH, desE) of B. desmolans ATCC 43058 (Agathobaculum desmolans ATCC 43058) (protein)
chain: MAEEFYAVYPKDAWKDPSYRLMDKFSLKGKKGFVTGGGGGIGRNTAAAWAEAGADVALVDIPASKDRLEPLAKEMSERYGVKVVPLYCDVSDEEQVNALKDDLIRELGTVDFAHINAGVCLMGDDVDVPYSTWKKVIDIDLNGAFMTAQVAQQIMREHNHGGSIIMTSSLSGYNANFIGGGPSPVCAYGTAKAGISQLARYMGAGLAPYGIRVNTISPGYIWSGIHEGVMDKAGHDMCLEVVPIKRFGRTDELQGVMLFLASEASSYITGINIPVDGGYSIF
notes: N-terminal Strep-tag from pET-51b(+), E. coli BL21-CodonPlus(DE3) RIPL

Columns and labels:
[1] = molecular target: 20β-hydroxysteroid dehydrogenase (20β-HSDH) from Butyricicoccus desmolans ATCC 43058 (Butyricicoccus desmolans ATCC 43058); assay: SEC; Superdex 200 analytical column, 4°C; 50 mM Tris-Cl, 300 mM NaCl, 10% glycerol, 10 mM 2-mercaptoethanol, 0.1% Triton X-100, pH 7.5; native mass from retention volume against standard proteins, divided by the subunit mass from SDS-PAGE
purified protein = substrate: C[C@]12CCC(=O)C=C1CC[C@@H]1[C@@H]2[C@@H](O)C[C@@]2(C)[C@H]1CC[C@]2(O)C(=O)CO; assay: purified protein; format: biochemical, Agathobaculum desmolans; settings: reductive direction, saturating NADH, 0.05 μM enzyme, standard assay 50 mM phosphate pH 7.5, temperature not stated for Km

Molecule | stoichiometry N [1] | Km (purified protein) | Vmax (purified protein)
20β-hydroxysteroid dehydrogenase (20β-HSDH) from Butyricicoccus desmolans ATCC 43058 (enzyme) | 3.96 |  | 
B1 |  | 0.80 ± 0.06 µM | 30.4 µmol/min
